This is an account of results in patent US20160194407A1 (AstraZeneca / MedImmune, published 2016).

Test [1] has as its target T1, cynomolgus CD73 extracellular domain (ECD) (cynomolgus).
T1 construct: extracellular domain; also called Cynomolgus CD73 ECD; cyno CD73 (SPR Proteon)
Nature of the test: SPR (Proteon), IgG1-TM.

Test [2] concerns the target T2, CD73 construct with chicken N- and C-terminal domain sequence and knocked-in human V144 and N185.
T2 construct: K180 is conserved between chicken and human; also called chicken CD73 replaced with V144 and N185; knock-in
T2 chain: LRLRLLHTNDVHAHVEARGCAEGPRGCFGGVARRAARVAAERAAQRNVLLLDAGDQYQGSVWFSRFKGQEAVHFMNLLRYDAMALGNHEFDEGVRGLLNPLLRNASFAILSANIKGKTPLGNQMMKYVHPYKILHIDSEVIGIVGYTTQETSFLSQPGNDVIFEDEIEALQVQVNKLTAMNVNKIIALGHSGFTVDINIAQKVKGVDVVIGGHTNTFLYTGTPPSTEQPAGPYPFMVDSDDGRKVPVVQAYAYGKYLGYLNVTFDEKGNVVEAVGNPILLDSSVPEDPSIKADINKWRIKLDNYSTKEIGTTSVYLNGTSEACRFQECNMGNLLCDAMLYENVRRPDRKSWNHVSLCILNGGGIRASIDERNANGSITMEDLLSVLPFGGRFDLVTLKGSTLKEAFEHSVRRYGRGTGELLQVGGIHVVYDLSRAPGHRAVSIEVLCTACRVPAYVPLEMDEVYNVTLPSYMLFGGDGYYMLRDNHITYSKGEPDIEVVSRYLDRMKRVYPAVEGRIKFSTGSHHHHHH
Kind of test: SPR ProteOn, MEDI9447 dilutions from 5 nM to 0.3 nM.
Protocol: CD73 crude cell supernatant protein samples were diluted to 3 μg/ml in PBS, 0.005% Tween-20, pH 7.4 (BioRad) and immobilized to ˜400 RU on a HTG tris-NTA sensor chip (BioRad) pre-activated with 10 mM NiSO₄, 10 mM MES, pH 6.0 (BioRad). An equivalently diluted crude cell supernatant sample from non-transfected cells was included as a reference channel control. […] Antibody binding was measured at a flow rate of 100 μL/min with a 3 min association phase and 20 min dissociation phase. The sensor chip surface was regenerated between each run by an 800 s injection of 300 mM EDTA, pH 8.5 (BioRad) at a flow rate of 30 μL/min. Binding kinetics were analyzed using the ProteOn data analysis software. Double referencing was performed and, unless noted otherwise, a 1:1 Langmuir binding model was utilized to fit the data.

Test [3] concerns the target T3, CD73 chimera KO_Linker (human; chicken (Gallus gallus)).
T3 construct: Human limits converted from mature numbering (+26); also called KO_292-310; linker region-swapped CD73
T3 chain: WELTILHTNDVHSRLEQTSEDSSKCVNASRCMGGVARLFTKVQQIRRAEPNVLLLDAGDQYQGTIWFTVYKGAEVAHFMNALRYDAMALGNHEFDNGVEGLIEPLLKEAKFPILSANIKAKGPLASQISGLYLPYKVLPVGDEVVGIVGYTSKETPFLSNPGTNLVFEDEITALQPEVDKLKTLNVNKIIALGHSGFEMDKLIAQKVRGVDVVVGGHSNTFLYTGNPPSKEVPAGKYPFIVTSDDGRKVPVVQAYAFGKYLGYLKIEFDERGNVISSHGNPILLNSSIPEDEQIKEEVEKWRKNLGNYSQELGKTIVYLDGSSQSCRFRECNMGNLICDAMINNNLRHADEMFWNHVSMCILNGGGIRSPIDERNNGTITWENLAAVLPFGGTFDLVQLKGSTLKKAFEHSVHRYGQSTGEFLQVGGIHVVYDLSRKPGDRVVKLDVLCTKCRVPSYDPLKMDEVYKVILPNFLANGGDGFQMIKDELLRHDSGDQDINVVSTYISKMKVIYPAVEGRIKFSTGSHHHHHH
Nature of the test: SPR ProteOn, His-tagged CD73 variant on HTG chip.

Test [4] deals with T4, human CD73 K180A (human, UniProt P21589 27-553, K180A).
T4 sequence: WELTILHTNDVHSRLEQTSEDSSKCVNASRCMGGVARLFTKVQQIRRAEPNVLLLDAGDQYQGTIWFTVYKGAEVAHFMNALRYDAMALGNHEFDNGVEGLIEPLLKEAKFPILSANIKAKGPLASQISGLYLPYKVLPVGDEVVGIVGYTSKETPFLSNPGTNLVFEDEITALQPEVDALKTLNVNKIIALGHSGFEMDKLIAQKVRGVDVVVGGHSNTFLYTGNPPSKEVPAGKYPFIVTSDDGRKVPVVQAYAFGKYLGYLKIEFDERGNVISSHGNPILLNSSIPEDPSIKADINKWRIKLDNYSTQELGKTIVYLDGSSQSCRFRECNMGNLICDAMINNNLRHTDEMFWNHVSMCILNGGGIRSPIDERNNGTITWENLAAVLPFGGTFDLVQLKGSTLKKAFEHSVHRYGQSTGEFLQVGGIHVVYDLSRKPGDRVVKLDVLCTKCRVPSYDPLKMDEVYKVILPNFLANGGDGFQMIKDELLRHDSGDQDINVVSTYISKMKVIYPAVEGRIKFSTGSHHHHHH
Nature of the test: SPR ProteOn, His-tagged CD73 variant on HTG chip.

For test [5], the target named is T5, human CD73 V144K + K180A (human, UniProt P21589 27-553).
T5 chain: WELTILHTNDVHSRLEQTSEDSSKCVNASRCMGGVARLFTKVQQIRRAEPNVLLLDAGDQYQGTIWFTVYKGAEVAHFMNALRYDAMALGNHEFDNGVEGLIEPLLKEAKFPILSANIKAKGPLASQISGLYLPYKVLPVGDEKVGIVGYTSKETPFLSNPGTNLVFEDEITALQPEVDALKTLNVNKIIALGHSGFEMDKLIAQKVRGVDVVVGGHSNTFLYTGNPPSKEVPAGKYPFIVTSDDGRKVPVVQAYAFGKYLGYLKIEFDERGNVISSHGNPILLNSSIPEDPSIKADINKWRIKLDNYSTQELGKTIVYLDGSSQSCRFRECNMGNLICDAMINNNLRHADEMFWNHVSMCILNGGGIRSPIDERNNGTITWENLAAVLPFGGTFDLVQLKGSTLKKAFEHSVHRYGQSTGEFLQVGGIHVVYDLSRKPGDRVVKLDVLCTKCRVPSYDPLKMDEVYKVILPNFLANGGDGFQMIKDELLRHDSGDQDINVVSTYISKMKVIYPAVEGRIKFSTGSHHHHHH
Kind of test: SPR ProteOn, His-tagged CD73 variant on HTG chip.

Test [6] addresses T6, cynomolgus CD73 on cells (cynomolgus).
T6 construct: whole, on cells; also called native CD73 on MK-1 cells (cynomolgus)
Kind of test: flow cytometry on MK-1 cells, one-site fit of median fluorescence.
Protocol: All flow cytometry experiments were run at 4 C and reagents were prepared in PBS/1% FBS buffer. 10,000 cells were incubated with test antibody in 50 uL volume for 4 hours. Cells were washed twice and incubated in 50 uL goat anti-human IgGFc-AlexaFluor647 conjugate for 15 minutes. Cells were washed, resuspended in buffer supplemented with Dapi, and analyzed on a flow cytometer. Dead cells, identified by high Dapi staining, were excluded from the analysis. For the determination of KD values, a plot of the median fluorescence intensity as a function of test antibody concentration was fitted nonlinearly using a one site binding isotherm model.

Bounds are passed on as bounds.

B1: MEDI9447 (antibody, V domains shown)
VH: EVQLLESGGGLVQPGGSLRLSCAASGFTFSSYAYSWVRQAPGKGLEWVSAISGSGGRTYYADSVKGRFTISRDNSKNTLYLQMNSLRAEDTAVYYCARLGYGRVDEWGRGTLVTVSS
VL: QSVLTQPPSASGTPGQRVTISCSGSLSNIGRNPVNWYQQLPGTAPKLLIYLDNLRLSGVPDRFSGSKSGTSASLAISGLQSEDEADYYCATWDDSHPGWTFGGGTKLTVL
notes: also called clone 10.3 antibody; 73combo3
For B1, the Kd amounted to 7 pM in test [1] and 84 pM in test [6]. In addition, in test [2], the “fold of the KD for wild-type CD73” value was < 20 fold. Moreover, the kon in test [3] stood at 5.57e+06 M⁻¹ s⁻¹; in test [4] it was 3.45e+06 M⁻¹ s⁻¹; in test [5], 1.58e+06 M⁻¹ s⁻¹. The koff in test [4] was found to be 0.000154 s⁻¹; in test [5], 0.00425 s⁻¹.

The Kd is the concentration at which binding is half-saturated. The kon is the second-order rate constant of association. Broadly, the koff is the first-order rate constant of dissociation.
